Assay [1] has as its target human CACNG1, cell surface-expressed (human) (UniProt Q06432).
For assay [2] the target is unchanged. This is another data set of the same source.
For assay [3] the target is unchanged. This is another data set of the same source.

Chain of human CACNG1, cell surface-expressed (human) (Q06432 whole entry): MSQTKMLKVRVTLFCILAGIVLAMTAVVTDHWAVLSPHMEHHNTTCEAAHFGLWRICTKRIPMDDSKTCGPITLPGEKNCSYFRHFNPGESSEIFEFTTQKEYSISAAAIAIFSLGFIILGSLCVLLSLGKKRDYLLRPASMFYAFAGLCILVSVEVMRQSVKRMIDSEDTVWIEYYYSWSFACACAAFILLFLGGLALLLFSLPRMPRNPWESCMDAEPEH

B1: REGN14571-M3004 (antibody, from a related filing, V domains shown, part only)
VH: QVQLQESGPGLVKPSETLSLTCTVSGDSINNYYWTWLRQPPGKGLEWIGYIYYSGSANYNPSLKSRVTISVDTSKNQFSLKLNSVTAADTAVYYCARGAVKYFRHWGQGTLVTVSS
VL: EIVLTQSPGTLSLSPGERATLSCRASQTINHNNLAWYQQRPGQAPRLLIYGASNRATAIPDRFSGSGSGTDFTLTISRLEPEDFEVYSCQQYGSLPLTFGGGTKVEIKR
Take B1: the EC50; androgen receptor luciferase reporter (RLU), hCACNG1.AR.Luc LNCaP cells, 72 hours in assay [1] stood at 5.44 nM. In addition, the EC50; androgen receptor luciferase reporter (RLU), hCACNG1.AR.Luc LNCaP cells, 48 hours in assay [2] was 6.95 nM. This molecule also showed an EC50; androgen receptor luciferase reporter (RLU), hCACNG1.AR.Luc LNCaP cells, 24 hours in assay [3] of 7.83 nM.

For the origin of these results see US20260234660A1, “TREATMENT OF MUSCLE RELATED DISORDERS WITH ANTI-HUMAN CACNG1 ANTIBODIES” (Regeneron Pharmaceuticals, Inc., priority 2023, published 2026).
